{"source": "patent US11311625B2", "about": "“Peptide-based multiple-drug delivery vehicle” (priority 2015, dated 2022)", "key": {"[1]": {"assay": "Chemo-stability and drug release of 9a and CLB in buffers at pH 2, 5 and 7.4 (LC-MS)", "format": "physicochemical", "details": "for half-life at 0.04 mg/mL: buffer, read-out: degradation t1/2 (converted)", "method": "Stock solutions chemo-stability studies were prepared by dissolving 5 mg of the tested compound in 5000 μl of DMSO.\nIncubation procedure: Aqueous stability was determined at pH 2, 5 and 7.4. Aliquots (100 μl) of stock solution were diluted to a total of 2.5 mL with the desired buffer and then incubated at 37° C. During the incubation period (up to 160 h) 250 μL portions were drawn at different time intervals, filtered and analyzed by LC-MS.\nPeptidyl delivery systems loaded with anticancer drugs are expected to reach their site of action with minimal degradation. The PDS should be stable enough to be absorbed by cancer cells and only then deliver its toxic cargo. Chemo-stability and bio-stability studies may give us a background check for the endurance of our compact peptidyl DDS under the different conditions it is expected to encounter in a potential animal test. To that end, samples of 9a were incubated at pH 2, mimicking stomach conditions, at pH 5 mimicking the microenvironment in tumors, and at physiological pH 7.4, all at 37° C. Aliquots from the stock solutions were extracted at different time intervals and analyzed by LC-MS following the decrease in concentration of 9a (i.e., chemical degradation) and the formation of the dihydroxy derivative 11. In addition, the direct release of the different drugs was also followed based on the increase in the concentration of CLB, AZA and CAMP over time. In this analysis samples of 9a, 11, CLB, AZA and CAMP were used as references. Overall, the HPLC trace presents a very complex mixture of metabolites which could not be exhaustively characterized. Scheme 9 below presented the molecular structure 11."}, "[2]": {"assay": "Bio-stability of 9a in murine liver homogenate (LH)", "format": "in vitro ADME, mouse", "method": "Preparation of the LH and assay: Mice were sacrificed by CO2 inhalation euthanasia. The livers were removed, minced, washed three times in cold PBS buffer and homogenized in Tris-HCl, pH 7.4 buffer (wt/3 vol.) by dozen strokes in a Potter-Elvehjem glass tissue grinder. The tissue homogenate was centrifuged at 4° C., 14000 rpm, 20 min. The supernatant was carefully collected (LH) and used immediately or else stored in liquid nitrogen. The concentration of protein was measured using the BCA protein assay with bovine serum albumin as a standard.\nAssay incubation procedure: Incubations were conducted in an incubator oven set at 37° C. Each incubation tube contained 2 mL homogenate samples (equivalent to 6 mg total protein of mouse LH). The samples were prepared by adding 50 μL of stock solution to the LH at the beginning of the incubation period. Aliquots (100 μL) of the LH mixture were removed after 10, 30, 60, 90, 120, and 180 min. immediately quenched with 2.5 volumes of ethanol, and centrifuged at 14000 rpm for 15 min. The supernatants were collected, filtered and analyzed by LC-MS.\nIn order to get a biologically relevant picture of the release sequence of the different drugs, the bio-stability of 9a in murine liver homogenate (LH) was studied. Examination of the degradation rate of 9a, accompanied by cleavage of free drugs, was carried out following the LC-MS trace at different time intervals using premade authentic samples as reference signals."}, "[3]": {"system": "HEK293 and TRAMP C2 cell lines", "format": "cell-based, human", "method": "The cytotoxicity of the conjugates was determined by measuring the mitochondrial enzyme activity, using a commercial XTT assay kit. All samples contained DMSO at a final concentration <0.05%. Cells were cultured in micro wells at 2-4×10^4 cells/mL and incubated for 24 h or 72 h at 37° C. After the first incubation period of 24 h the cultures were washed and then given a fresh medium containing different concentrations of the tested substances. At the end of the second incubation, XTT reagent was added and the cells were re-incubated for additional 2-4 h. During that time the absorbencies in the wells were measured with a TECAN Infinite M200 ELISA reader at both 480 and 680 nm. […]\nThe in vitro activity of 9a was determined on human embryonic kidney 293 (HEK293) cells and human prostate cancer TRAMP C2 cell lines in order to compare the cytotoxicity of 9a relative to the three selected free drugs. […] The cytotoxicity of 9a was determined by measuring the mitochondrial enzyme activity of the different cell lines after incubation with the different substances for 24 h and 72 h. The viability factor (% of surviving cells) of the cell cultures was calculated relative to a control sample incubated with the vehicle only, considered as 100% viability. […]\nFIGS. 19A-19D present the results of the viability assay (% surviving cells) of the cell cultures calculated relative to the control, 100% viability. […]"}, "[4]": {"system": "HEK-293 (Human Embryonic Kidney 293) cell line", "assay": "XTT growth inhibition assay, HEK-293 negative control", "format": "cell-based", "method": "The cytotoxicity of the peptide-drug conjugates was determined by measuring the mitochondrial enzyme activity, using a commercial XTT assay kit. All samples contained DMSO at final concentration <0.05%. Cells were cultured in micro wells at 2-4×10^4 cells/ml and incubated for 24 h or 72 h. After the first incubation period the cultures were washed and then given fresh medium containing different concentrations of the tested substances. At the end of the second incubation, XTT reagent was added and the cells were re-incubated for additional 2-4 h. During that time the absorbencies in the wells were measured with a TECAN Infinite M200 plate reader at both 480 and 680 nm. […]\nIn order to compare the cytotoxic effects of the conjugates relative to the free drugs, the in vitro cytotoxic effect of the drug bioconjugates 1a-e was determined on SSTR2 overexpressed HCT 116 human colorectal carcinoma, H1299 human non-small cell lung carcinoma and TRAMP C2 human prostate cancer cell lines. […]\nFIGS. 13A-13D present the results of the XTT growth inhibition assay conducted for conjugates 1a-e. […] After the treatment, growth inhibition was measured using the XTT assay: The culture medium was replaced by a new one, and then the XTT reagent was added. The wells were incubated for 2-4 hrs. after which the optical density (OD) was measured at 480 and 680 nm. […]"}, "[5]": {"system": "HCT 116, H1299, TRAMP C2 and HEK cell lines", "assay": "XTT growth inhibition assay, statements over all tested cell lines", "format": "cell-based, human", "details": "tested cell lines including HEK", "method": "The cytotoxicity of the peptide-drug conjugates was determined by measuring the mitochondrial enzyme activity, using a commercial XTT assay kit. All samples contained DMSO at final concentration <0.05%. Cells were cultured in micro wells at 2-4×10^4 cells/ml and incubated for 24 h or 72 h. After the first incubation period the cultures were washed and then given fresh medium containing different concentrations of the tested substances. At the end of the second incubation, XTT reagent was added and the cells were re-incubated for additional 2-4 h. During that time the absorbencies in the wells were measured with a TECAN Infinite M200 plate reader at both 480 and 680 nm. The difference between these measurements was used for calculating the % Growth Inhibition (GI) in test wells compared to two controls: cells that were exposed to the medium and solvent, and those that were exposed to a solvent-free medium. All the tests were done in quadruplicates. Each experiment was conducted twice.\nIn order to compare the cytotoxic effects of the conjugates relative to the free drugs, the in vitro cytotoxic effect of the drug bioconjugates 1a-e was determined on SSTR2 overexpressed HCT 116 human colorectal carcinoma, H1299 human non-small cell lung carcinoma and TRAMP C2 human prostate cancer cell lines. The SSTR2 low-expressed HEK-293 (Human Embryonic Kidney 293) cell line was used as a negative control. The study was elaborated over a concentration range of 1-10 μM.\nFIGS. 13A-13D present the results of the XTT growth inhibition assay conducted for conjugates 1a-e. Growth inhibition effect of drug-conjugates versus free drugs was studied on three cell lines with an over-expression of SSTR2 (FIG. 13A. HCT 116; FIG. 13B. H1299; FIG. 13C. TRAMP C2) against the SSTR2 low expression cell line (FIG. 13D) HEK as negative control. All the cell lines were seeded and allowed to adhere in the wells, after which they were treated with the different compounds in increasing concentrations for 24 and 72 hr. After the treatment, growth inhibition was measured using the XTT assay: The culture medium was replaced by a new one, and then the XTT reagent was added. The wells were incubated for 2-4 hrs. after which the optical density (OD) was measured at 480 and 680 nm. Percentage of growth inhibition for each compound was calculated by comparison of the treated culture versus a control culture (free of any compound). The result shown for each concentration point represents the mean±standard error calculated from two different experiments. In each experiment the compounds were tested in quadruplicates."}, "[6]": {"system": "human embryonic kidney 293 (HEK293) cells", "format": "cell-based", "method": "(§1) The cytotoxicity of the conjugates was determined by measuring the mitochondrial enzyme activity, using a commercial XTT assay kit. All samples contained DMSO at a final concentration <0.05%. Cells were cultured in micro wells at 2-4×10^4 cells/mL and incubated for 24 h or 72 h at 37° C. After the first incubation period of 24 h the cultures were washed and then given a fresh medium containing different concentrations of the tested substances. At the end of the second incubation, XTT reagent was added and the cells were re-incubated for additional 2-4 h. During that time the absorbencies in the wells were measured with a TECAN Infinite M200 ELISA reader at both 480 and 680 nm. The difference between these measurements was used for calculating the % viability in test wells compared to two controls: cells that were exposed to the medium and solvent, and those which were exposed to a solvent-free medium. All the tests were done in triplicate. Each experiment was conducted twice.\n(§2) The in vitro activity of 9a was determined on human embryonic kidney 293 (HEK293) cells and human prostate cancer TRAMP C2 cell lines in order to compare the cytotoxicity of 9a relative to the three selected free drugs. […] The cytotoxicity of 9a was determined by measuring the mitochondrial enzyme activity of the different cell lines after incubation with the different substances for 24 h and 72 h."}, "[7]": {"system": "human prostate cancer TRAMP C2 cell lines", "format": "cell-based", "method": "as §1, §2"}}, "note": "Where two headings read alike, the source gives them in different places."}
{"smiles": "CC[C@@]1(OC(=O)NCCCC[C@H](NC(=O)CCCc2ccc(N(CCCl)CCCl)cc2)C(=O)NCCCC[C@H](NC(=O)Oc2c(OC)cc([C@@H]3c4[nH]c5ccccc5c4C[C@H]4COC(=O)N43)cc2OC)C(=O)O)C(=O)OCc2c1cc1n(c2=O)Cc2cc3ccccc3nc2-1", "note": "[9a, Lys(AZA)-Lys(CBL)(CAMP)]", "values": [{"measurement": "half-life at 0.04 mg/mL", "setting": "[1]; pH 2, 37° C.", "result": 2, "unit": "h"}, {"measurement": "half-life at 0.04 mg/mL", "setting": "[1]; pH 5, 37° C.", "result": 1.5, "unit": "h"}, {"measurement": "release of the three drugs", "setting": "[1]; pH 2", "result": "none of the three drugs appeared to be released intact or at all"}, {"measurement": "appearance of free AZA", "setting": "[1]; pH 5", "result": "not detected"}, {"measurement": "maximum concentration of released CAMP", "setting": "[1]; pH 5", "result": 34, "unit": "nM"}, {"measurement": "period in which released CAMP decays completely", "setting": "[1]; pH 5", "result": "≤ 80", "unit": "h"}, {"measurement": "time at which CLB could be first detected", "setting": "[1]; pH 5", "result": 38, "unit": "h"}, {"measurement": "time to maximum concentration of released CAMP", "setting": "[1]; pH 5", "result": 21, "unit": "h"}, {"measurement": "concentration of released CLB", "setting": "[1]; pH 5, after 100 h", "result": "≤ 44", "unit": "nM"}, {"measurement": "free CLB", "setting": "[1]; pH 7.4", "result": "not detected"}, {"measurement": "maximum concentration plateau of released AZA", "setting": "[1]; pH 7.4", "result": 12, "unit": "nM"}, {"measurement": "time at which AZA concentration starts to rise above base-line", "setting": "[1]; pH 7.4", "result": 20, "unit": "h"}, {"measurement": "time at which CAMP could be detected", "setting": "[1]; pH 7.4", "result": 75, "unit": "h"}, {"measurement": "time to maximum concentration of released CAMP", "setting": "[1]; pH 7.4", "result": 100, "unit": "h"}, {"measurement": "time to maximum concentration plateau of released AZA", "setting": "[1]; pH 7.4", "result": 40, "unit": "h"}, {"measurement": "presence of free AZA", "setting": "[2]", "result": "could not be detected"}, {"measurement": "time to concentration plateau of released CAMP", "setting": "[2]", "result": 30, "unit": "min"}, {"measurement": "time to steady state plateau of released CLB", "setting": "[2]", "result": 80, "unit": "min"}, {"measurement": "drug release in LH", "setting": "[2]; 37° C.", "result": "quick release of CLB and CAMP"}, {"measurement": "cytotoxic effect / relative cytotoxic activity", "setting": "[3]; 0.1-10 μM, both cell lines", "result": "comparable level to the tested free drugs"}]}
{"smiles": "CC[C@@]1(O)C(=O)OCc2c1cc1n(c2=O)Cc2cc3ccccc3nc2-1", "note": "[CPT, Camptothecin]", "values": [{"measurement": "cytotoxic effect", "setting": "[4]", "result": "toxic"}, {"measurement": "IC50 values", "setting": "[5]", "result": "low μM range"}]}
{"smiles": "COc1cc([C@@H]2c3[nH]c4ccccc4c3C[C@H]3COC(=O)N32)cc(OC)c1O", "note": "[AZA, Azatoxin, reference compound]", "values": [{"measurement": "stability of free drug in LH", "setting": "[2]", "result": "stable"}, {"measurement": "surviving cells", "setting": "[6]", "result": "less than 10%"}, {"measurement": "surviving cells", "setting": "[7]", "result": "less than 10%"}, {"measurement": "cytotoxic effect / relative cytotoxic activity", "setting": "[3]", "result": "most active drug"}]}
